Measured values reported in patent publication US6380373B1, “Steroid receptor coactivator compositions and methods of use” (Baylor College of Medicine, priority 1995, dated 2002).

Tests used:
[1] = molecular target: human progesterone receptor B isoform (hPRB) (human) (UniProt P06401); test: cell-based or functional assay
hPR = molecular target: T1, hPR (Homo sapiens, UniProt P06401); test: Squelching of hPR transactivation by hER and its reversal by SRC-1, CAT assay in HeLa cells; format: cell-based
T1 construct: expressed in transfected cells; host or cells: HeLa
T1 sequence (P06401 1-933): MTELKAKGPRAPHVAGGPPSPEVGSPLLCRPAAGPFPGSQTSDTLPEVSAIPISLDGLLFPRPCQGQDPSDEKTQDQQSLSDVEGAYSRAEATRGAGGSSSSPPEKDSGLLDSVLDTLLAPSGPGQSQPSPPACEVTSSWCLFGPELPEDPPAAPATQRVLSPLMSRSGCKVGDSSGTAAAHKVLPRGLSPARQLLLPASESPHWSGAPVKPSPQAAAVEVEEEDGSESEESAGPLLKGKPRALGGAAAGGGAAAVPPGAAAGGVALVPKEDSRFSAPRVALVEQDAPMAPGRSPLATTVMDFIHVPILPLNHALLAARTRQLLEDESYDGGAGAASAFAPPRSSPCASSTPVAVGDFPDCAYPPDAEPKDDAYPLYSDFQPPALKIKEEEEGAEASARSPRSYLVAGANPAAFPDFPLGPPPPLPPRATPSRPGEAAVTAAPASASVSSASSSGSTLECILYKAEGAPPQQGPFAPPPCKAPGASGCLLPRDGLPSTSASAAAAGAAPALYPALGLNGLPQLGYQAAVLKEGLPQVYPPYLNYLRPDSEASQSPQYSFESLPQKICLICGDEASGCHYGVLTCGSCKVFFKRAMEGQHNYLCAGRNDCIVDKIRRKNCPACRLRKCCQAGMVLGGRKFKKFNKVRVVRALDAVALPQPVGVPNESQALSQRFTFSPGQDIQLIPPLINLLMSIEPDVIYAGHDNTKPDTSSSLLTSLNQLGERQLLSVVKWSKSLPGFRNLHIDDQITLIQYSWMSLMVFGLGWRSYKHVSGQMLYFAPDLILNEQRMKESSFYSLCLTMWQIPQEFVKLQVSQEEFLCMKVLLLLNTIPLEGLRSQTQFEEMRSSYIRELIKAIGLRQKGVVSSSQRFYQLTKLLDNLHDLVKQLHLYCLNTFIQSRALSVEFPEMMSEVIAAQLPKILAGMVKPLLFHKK
Protocol: (§1) Lipofectin (GibcoBRL) was selected for transfection of Hela cells.
HeLa cells were transfected with 1 μg of both hPR and hER expression vectors, together with 5 μg of PRE2-TATA-CAT and increasing amounts of SRC-1. Cells were then exposed to ligands R5020 and/or E2 (2×10^−8 M) and CAT activities determined 42 h later using 40 μg of proteins extract. The percentage of chloramphenicol conversion to the mono and diacetylated form was determined and represents the average of three independent experiments (Xn=3±SEM).

ER = molecular target: T2, ER (Homo sapiens, UniProt P03372); test: CAT reporter assay ER/ERE2-TATA-CAT in HeLa cells; format: cell-based; settings: 3 μg SRC-1, estradiol 2×10^−8 M
T2 construct: expressed in transfected cells; host or cells: HeLa
T2 sequence (P03372 1-595): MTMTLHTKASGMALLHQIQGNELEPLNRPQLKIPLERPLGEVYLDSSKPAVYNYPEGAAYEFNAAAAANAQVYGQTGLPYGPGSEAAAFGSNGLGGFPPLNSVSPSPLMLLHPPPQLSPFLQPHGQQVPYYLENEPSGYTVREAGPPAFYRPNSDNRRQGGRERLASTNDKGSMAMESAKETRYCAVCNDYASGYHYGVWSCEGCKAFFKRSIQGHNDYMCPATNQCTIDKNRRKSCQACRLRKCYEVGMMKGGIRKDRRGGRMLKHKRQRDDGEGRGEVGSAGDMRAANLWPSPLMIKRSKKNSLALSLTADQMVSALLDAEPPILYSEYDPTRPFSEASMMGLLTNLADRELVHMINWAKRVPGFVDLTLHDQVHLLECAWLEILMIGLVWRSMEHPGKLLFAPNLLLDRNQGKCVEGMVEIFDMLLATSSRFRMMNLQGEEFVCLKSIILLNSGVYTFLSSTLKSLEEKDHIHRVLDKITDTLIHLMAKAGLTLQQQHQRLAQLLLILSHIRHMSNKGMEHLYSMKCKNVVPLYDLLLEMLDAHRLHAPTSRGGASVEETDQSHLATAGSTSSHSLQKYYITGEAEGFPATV
Protocol: Biol. 13, 6501-6508), Sp1 and Sp1-tk-CAT (Courey, A. J. and Tjian, R. (1988), Cell 55, 887-898), CREB and CRE-tk-CAT (Chrivia, J. C. et al., (1993), Nature 365, 855) and GAL4VP16 and 17mer-tk-CAT (Baniahmad, A. et al., (1992), EMBO J. 11, 1015-1023) have been previously described and the above references are incorporated herein by reference in their entirety, including any drawings.
as §1
HeLa cells were cotransfected with 0.5 μg of cDNAs encoding various steroid receptors indicated and 5 μg of their cognates HREs containing reporters, including PR/PRE2-TATA-CAT, ER/ERE2-TATA-CAT, GR/PRE2-TATA-CAT, TR-/DR4-tk-CAT and RXR/DR1-tk-CAT, along with 3 μg of SRC-1 or empty expression vector. Cells were then treated with their corresponding ligands (PR:R5020, ER:estradiol, GR:dexamethasone, TR:Triac, RXR:9-cis retinoic acid) at a concentration of 2×10^−8M. The CAT activity of the reporter was determined using 14 μg of protein extract.

E2F = molecular target: T3, E2F (Homo sapiens, UniProt Q01094); test: CAT reporter assay E2F/E2F-tk-CAT in HeLa cells; format: cell-based
T3 construct: expressed in transfected cells; host or cells: HeLa
T3 sequence (Q01094 whole entry): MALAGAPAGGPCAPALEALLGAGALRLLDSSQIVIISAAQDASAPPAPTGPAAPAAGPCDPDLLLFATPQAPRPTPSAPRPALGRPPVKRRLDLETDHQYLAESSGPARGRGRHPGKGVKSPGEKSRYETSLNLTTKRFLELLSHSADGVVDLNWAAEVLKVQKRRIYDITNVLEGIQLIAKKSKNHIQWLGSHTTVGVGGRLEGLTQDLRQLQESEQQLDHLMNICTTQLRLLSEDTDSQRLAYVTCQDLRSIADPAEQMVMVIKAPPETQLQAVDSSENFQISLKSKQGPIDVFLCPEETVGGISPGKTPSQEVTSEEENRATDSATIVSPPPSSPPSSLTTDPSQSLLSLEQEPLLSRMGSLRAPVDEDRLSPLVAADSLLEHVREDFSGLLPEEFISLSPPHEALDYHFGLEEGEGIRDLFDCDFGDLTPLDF
Protocol: as §1
The CAT activity of the reporter was determined.

GAL4-VP16 = settings: HeLa cells, UASG element
Protocol: Cells were maintained in Dulbecco's modified Eagle's medium supplemented with 10% (vol/vol) fetal calf serum (Smith, C. L. et al., (1993), Proc. Natl. Acad. Sci. USA 90, 6120-6124). The day before transfection, 10^6 cells were seeded in 100 mm dishes and 4-6 h later switched serum-free medium supplemented with Nutridoma-SR (Boehringer Mannhein). When ER was used for transfections, phenol-red-free medium was used (Smith, C. L. et al., (1993), Proc. Natl. Acad. Sci. USA 90, 6120-6124). HeLa cells were transfected with mammalian expression vectors encoding steroid receptors or other transcription factors along with 5 μg of CAT reporter. Lipofectin (GibcoBRL) was selected for transfection of Hela cells.
Cells were then harvested and proteins prepared as whole-cell extracts by freeze-thaw lysis. The reporter CAT activity in the extract was determined using 100 uCi of [^14C]-chloramphenicol and 4 mM acetyl coenzyme A as substrate and standardized by protein content. Activity of the extract was calculated by determining the percentage of conversion of [^14C]-chloramphenicol to the mono and diacetylated forms (Ausubel, F. M., et al., (1992), Short Protocols In Molecular Biology, New York: Greene Publishing Associates and John Wiley & Sons). […]

B1: steroid receptor coactivator-one (SRC-1), full-length (protein)
chain: MSIPRVNPSVNPSISPAHGVARSSTLPPSNSNMVSTRINRQQSSDLHSSSHSNSSNSQGSFGCSPGSQIVANVALNKGQASSQSSKPSLNLNNPPMEGTGISLAQFMSPRRQVTSGLATRPRMPNNSFPPNISTLSSPVGMTSSACNNNNRSYSNIPVTSLQGMNEGPNNSVGFSASSPVLRQMSSQNSPSRLNIQPAKAESKDNKEIASTLNEMIQSDNSSSDGKPLDSGLLHNNDRLSDGDSKYSQTSHKLVQLLTTTAEQQLRHADIDTSCKDVLSCTGTSNSASANSSGGSCPSSHSSLTARHKILHRLLQEGSPSDITTLSVEPDKKDSASTSVSVTGQVQGNSSIKLELDASKKKESKDHQLLRYLLDKDEKDLRSTPNLSLDDVKVKVEKKEQMDPCNTNPTPMTKATPEEIKLEAQSQFTADLDQFDQLLPTLEKAAQLPGLCETDRMDGAVTSVTIKSEILPASLQSATARPTSRLNRLPELELEAIDNQFGQPGTGDQIPWTNNTVTAINQSKSEDQCISSQLDELLCPPTTVEGRNDEKALLEQLVSFLSGKDETELAELDRALGIDKLVQGGGLDVLSERFPPQQATPPLIMEERPNLYSQPYSSPFPTANLPSPFQGMVRQKPSLGTMPVQVTPPRGAFSPGMGMQPRQTLNRPPAAPNQLRLQLQQRLQGQQQLIHQNRQAILNQFAATAPVGINMRSGMQQQITPQPPLNAQMLAQRQRELYSQQHRQRQLIQQQRAMLMRQQSFGNNLPPSSGLPVQTGNPRLPQGAPQQFPYPPNYGTNPGTPPASTSPFSQLAANPEASLANRNSMVSRGMTGNIGGQFGTGINPQMQQNVFQYPGAGMVPQGEANFAPSLSPGSSMVPMPIPPPQSSLLQQTPPASGYQSPDMKAWQQGAIGNNNVFSQAVQNQPTPAQPGVYNNMSITVSMAGGNTNVQNMNPMMAQMQMSSLQMPGMNTVCPEQINDPALRHTGLYCNQLSSTDLLKTEADGTQQVQQVQVFADVQCTVNLVGGDPYLNQPGPLGTQKPTSGPQTPQAQQKSLLQQLLTE
[1]
  fold induction of PRE2-TATA-CAT reporter activity over the hormone-induced receptor activity (HeLa cells, R5020): 14 fold
  reversal of hER squelching of hPR-mediated CAT reporter activity (HeLa cells): 16 fold
  stimulation of PR transactivation at the highest concentration of SRC-1 (2 µg), CAT reporter: 5 fold
hPR; HeLa cells, increasing amounts of SRC-1, dose-dependent, in the presence of estrogen
  reversal of hER squelching of hPR transactivation: ~16 fold
hPR; highest concentration of SRC-1 (2 μg), without estrogen squelching
  stimulation of PR transactivation: ~5 fold
ER
  effect on ER transcriptional activity: enhance
E2F
  effect on E2F transcriptional activity: did not alter
GAL4-VP16
  effect on GAL4-VP16 transcriptional activity: enhanced
